Test results from the RNAGym collection of RNA variant scans (doi:10.1021/acssynbio.7b00057).

B1: Pistol ribozyme (parent)
chain: GGGUCGUUGUUCCAUAAUCGCGUGGAUAUGGCACGCAAGUUUCUACCGGGCACCGUAAAUGUCCGACUGGAGCCGUUCGGGCGGCUAUAAACAGACCUCAGGCCCGAAGCGUGGCGGCACCUGCCGCCGGUGGUAAAAAAGAUCGGAAGAGCACACGUCU

Variants of: B1
Test: aptazyme ON/OFF ratio, guanine; higher = stronger switching; co-transcriptional cleavage with and without guanine
In the case of U7A U8C G9A U10A U11C C13G, the “aptazyme ON/OFF ratio” value is reported as 1.03.
In the case of U7A U8A U10A U11C C12A C13G, the “aptazyme ON/OFF ratio” value is reported as 1.12.
In the case of U7G U8C G9U U11G C12A C13U, the “aptazyme ON/OFF ratio” value is reported as 1.38.
For U7A U8G G9U U11G C12G, the “aptazyme ON/OFF ratio” value was 1.56.
In the case of U7G U8G G9U C12G C13U, the “aptazyme ON/OFF ratio” value is reported as 1.27.
For U7C U8G G9A U10C U11A C12A C13A, the “aptazyme ON/OFF ratio” value was 1.11.
With U8G G9U U10G C13A the “aptazyme ON/OFF ratio” value was 1.04.
For U7C U8A G9A U10G C12A C13U, the “aptazyme ON/OFF ratio” value was 1.25.
In the case of U7C G9A U10A U11G C12U, the “aptazyme ON/OFF ratio” value is reported as 1.31.
In the case of U7A U8G G9A U11C, the “aptazyme ON/OFF ratio” value is reported as 1.33.
For U7G U8G G9C U11C C13U, the “aptazyme ON/OFF ratio” value was 1.33.
For U10A C12G, the “aptazyme ON/OFF ratio” value was 1.65.
With U8G U10C U11C C12G the “aptazyme ON/OFF ratio” value was 1.21.
For U7A U8G G9A U10A C12G C13U, the “aptazyme ON/OFF ratio” value was 1.34.
With U7C U8C U10C U11G C12G C13U the “aptazyme ON/OFF ratio” value was 1.1.
In the case of U7C G9U C12U C13G, the “aptazyme ON/OFF ratio” value is reported as 1.1.
In the case of U7A U8C G9A U10C U11C C12G C13A, the “aptazyme ON/OFF ratio” value is reported as 1.06.
In the case of U7A U8G U10C U11A C13A, the “aptazyme ON/OFF ratio” value is reported as 1.45.
For U7A U8C U10A U11A C12G C13U, the “aptazyme ON/OFF ratio” value was 1.28.
In the case of U7C U8G G9A U10C, the “aptazyme ON/OFF ratio” value is reported as 3.63.
In the case of U7C U8G G9C C12A C13A, the “aptazyme ON/OFF ratio” value is reported as 1.21.
With U7C G9C U10G C12A C13U the “aptazyme ON/OFF ratio” value was 1.12.
For U7A U8A G9U U10A U11A C12G C13G, the “aptazyme ON/OFF ratio” value was 1.14.
With U7G U8C G9A U10A U11C C13A the “aptazyme ON/OFF ratio” value was 1.1.
In the case of U7A G9A U10C U11G C13A, the “aptazyme ON/OFF ratio” value is reported as 1.22.
With U8G G9C U11C C12G C13A the “aptazyme ON/OFF ratio” value was 1.03.
In the case of U7C U8C G9A U10C U11C C12G C13G, the “aptazyme ON/OFF ratio” value is reported as 1.24.
With U7C U10G U11A C12G C13A the “aptazyme ON/OFF ratio” value was 1.09.
For U7A U8G U10A U11G C12A C13U, the “aptazyme ON/OFF ratio” value was 1.08.
With U7A U8C G9C U11G C12A C13A the “aptazyme ON/OFF ratio” value was 1.11.
With U7C U8G G9C U11G C13U the “aptazyme ON/OFF ratio” value was 1.15.
In the case of U7A U8G U10G U11A C12G C13A, the “aptazyme ON/OFF ratio” value is reported as 1.24.
With G9A U11A C12U C13G the “aptazyme ON/OFF ratio” value was 1.33.
For U7C U8C G9C U10A C12A C13U, the “aptazyme ON/OFF ratio” value was 1.21.
For U7G U8C G9C U10C U11G C12U, the “aptazyme ON/OFF ratio” value was 1.1.
For U7G U8G G9C U11G C12U C13U, the “aptazyme ON/OFF ratio” value was 1.26.
For U7A U8C G9A U10A U11G C13G, the “aptazyme ON/OFF ratio” value was 1.12.
In the case of U8G C12G, the “aptazyme ON/OFF ratio” value is reported as 1.52.
With U7C U8G G9U U10G U11C C13A the “aptazyme ON/OFF ratio” value was 1.17.
For G9C U10G U11G C12G C13U, the “aptazyme ON/OFF ratio” value was 1.1.
For U7G U8A U10A U11G C12A, the “aptazyme ON/OFF ratio” value was 1.11.
For U7G G9A U10G U11C C12U, the “aptazyme ON/OFF ratio” value was 1.11.
With U7A U8A G9U U11A C13G the “aptazyme ON/OFF ratio” value was 1.06.
With U7G U8G U10G U11A C12G C13G the “aptazyme ON/OFF ratio” value was 1.44.
For U7C U8G G9C U10A U11G, the “aptazyme ON/OFF ratio” value was 1.18.
In the case of U7G U8A G9U U10C U11A C12U C13G, the “aptazyme ON/OFF ratio” value is reported as 1.09.
In the case of U7G U8C U10C C12A C13G, the “aptazyme ON/OFF ratio” value is reported as 1.16.
In the case of U7A U8C G9A U10G U11A C12G C13G, the “aptazyme ON/OFF ratio” value is reported as 1.07.
In the case of U8G G9C U11C C12U C13U, the “aptazyme ON/OFF ratio” value is reported as 1.04.
With U7G U8G G9A U10A U11A C12U the “aptazyme ON/OFF ratio” value was 1.35.
In the case of U7A U8A U10C U11A C12U C13A, the “aptazyme ON/OFF ratio” value is reported as 1.16.
For U7A G9C U10G U11A C12A, the “aptazyme ON/OFF ratio” value was 1.1.
With U7G U8A G9U U10A C13A the “aptazyme ON/OFF ratio” value was 1.06.
For U7A U8A G9U U10C C12G C13G, the “aptazyme ON/OFF ratio” value was 1.35.
For U7A U8G U11A C12U C13A, the “aptazyme ON/OFF ratio” value was 1.5.
For G9C U10G C13A, the “aptazyme ON/OFF ratio” value was 1.28.
With U7C G9C U10C C12U C13G the “aptazyme ON/OFF ratio” value was 1.07.
For U7C U8A G9A U10A U11C C12U C13U, the “aptazyme ON/OFF ratio” value was 1.1.
In the case of U7G U10G C13A, the “aptazyme ON/OFF ratio” value is reported as 1.29.
In the case of U10C C12U C13G, the “aptazyme ON/OFF ratio” value is reported as 1.1.
In the case of U7C U8G G9C U10C U11A C12G C13A, the “aptazyme ON/OFF ratio” value is reported as 1.1.
In the case of U7G U8A G9C U10C C12U C13U, the “aptazyme ON/OFF ratio” value is reported as 1.01.
For U8G U11C C12A C13A, the “aptazyme ON/OFF ratio” value was 1.23.
In the case of U7C U8C G9A U10G C12A, the “aptazyme ON/OFF ratio” value is reported as 1.21.
For U7C G9C C12A C13U, the “aptazyme ON/OFF ratio” value was 1.02.
For U7G U8G U10G C12U C13G, the “aptazyme ON/OFF ratio” value was 1.04.
For U7G U8C G9C U10A C12U, the “aptazyme ON/OFF ratio” value was 1.06.
With U7G U8G G9C U10C U11C C13A the “aptazyme ON/OFF ratio” value was 1.09.
With U8C G9U U10C C12A C13G the “aptazyme ON/OFF ratio” value was 1.11.
For U8A G9C C12G C13U, the “aptazyme ON/OFF ratio” value was 1.27.
With G9C C12G C13A the “aptazyme ON/OFF ratio” value was 1.28.
With U7A U8G G9A U11G C13G the “aptazyme ON/OFF ratio” value was 1.16.
For U7C U8G G9A U10G U11A C12G C13U, the “aptazyme ON/OFF ratio” value was 1.42.
In the case of U7G U8G G9A U11G C13A, the “aptazyme ON/OFF ratio” value is reported as 1.26.
For U7C U8A G9A U10A U11A C13U, the “aptazyme ON/OFF ratio” value was 1.1.
For U7A U8G G9C U11A C13A, the “aptazyme ON/OFF ratio” value was 1.44.
With U8C G9U U10A U11A C12G C13A the “aptazyme ON/OFF ratio” value was 1.2.
With G9U U11A C12U C13G the “aptazyme ON/OFF ratio” value was 1.5.
In the case of U7A G9A U10A U11G, the “aptazyme ON/OFF ratio” value is reported as 1.3.
With U7G G9U U10G U11C C13U the “aptazyme ON/OFF ratio” value was 1.1.
With U7C U8C U10A U11G C13A the “aptazyme ON/OFF ratio” value was 1.25.
With U8A G9A U10A U11A C12G C13U the “aptazyme ON/OFF ratio” value was 1.16.
For U7G U8G G9A U10G C12A, the “aptazyme ON/OFF ratio” value was 1.27.
